From patent US20180127504A1 (ACADEMIA SINICA, published 2018)
Substitutions are numbered along the chain they refer to.

Columns and labels:
c-Met-Fc control protein = molecular target: T1, c-Met-Fc control protein (UniProt P08581 25-932, limits assumed); test: phage ELISA on coated MET-Fc, anti-M13-HRP detection
T1 construct: Bought control protein; also called Met-Fc (R&D); c-Met-Fe; not shown: Fc part of the bought fusion protein; not described
Experimental: (§1) The selected phages were further examined by ELISA screening. The 96-well plates were coated with […] of VEGFR2-Fc, Met-Fc (R&D), or BSA (Sigma) protein in 0.1 M sodium bicarbonate overnight at 4° C. After blocking with 1% BSA in PBS (w/v) for 2 hr at room temperature, 70-randomly selected phage clones were added to the plates at a 1:2 dilution in 1% BSA, and incubated for 1 hr at room temperature. Following washes with PBST, the plates were incubated with a 1:2000 dilution of horseradish peroxidase (HRP)-conjugated mouse anti-M13 phage antibody (GE) for 1 hr. After washing with PBST, the colorimetric reaction was developed with the peroxidase substrate ortho-phenylenediamine (OPD; Sigma) plus H₂O₂ for 15 min, and then terminated by the addition of 3 N HCl. The absorbance at 490 nm was determined using a microplate reader (SpectraMax, Molecular Devices). Plasmid DNA of positive clones were isolated and sequenced using the pCANTAB5 sequencing primer set.
(§2) After four rounds of affinity selection (biopanning), the titer of bound phage increased by as much as 3,455-fold (FIG. 1A).

[1] = molecular target: T2, VEGFR2-Fc recombinant protein (R&D Systems) (human, UniProt P35968 20-764); test: phage ELISA, 1x10^9 cfu phage on coated VEGFR2-Fc, anti-M13-HRP detection
T2 construct: Bought protein; also called VEGFR2 recombinant protein; immobilized VEGFR2; not shown: Fc part of the bought fusion protein; not described
Experimental: as §1, §2

[2] = molecular target: T3, VEGFR2 on the cell surface of human umbilical vein endothelial cells (HUVEC) (human, UniProt P35968 20-1356); test: flow cytometry on HUVECs, 1x10^10 cfu phage, anti-M13 and PE-labelled secondary antibody
T3 construct: Endogenous receptor of human cells; also called cell-surface VEGFR2; cellular VEGFR2
Experimental: About 1×10⁴ HUVEC were incubated with the selected anti-VEGFR2 phage clones at 4° C. for 1 hour in FACS buffer (PBS containing 1% fetal bovine serum). After the cells were washed with FACS buffer, they were first incubated with mouse anti-M13 phage Ab for 1 hr at 4° C., and then with R-phycoerythrin-conjugated goat anti-mouse IgG (Jackson Immuno Research) for 30 min at 4° C. Flow cytometry was performed with a FACSCantoII (BD), and emission fluorescence intensity was measured with FACS Diva software (BD) to quantitatively compare binding affinities.
as §2

[3] = molecular target: T2, VEGFR2-Fc recombinant protein (R&D …); test: SPR, BIACORE T100, VEGFR2-Fc coupled to CM5 chip, IgG as analyte
Experimental: (§3) The affinity and kinetics of anti-VEGFR2 antibodies were measured by surface plasmon resonance in a BIACORE T100™ (GE healthcare). VEGFR2-Fc protein was coupled to an EDC- and NHS-activated CM5 sensor chip in a BIACORE flow cell, and then blocked with ethanolamine according to the manufacturer's directions. Associated and dissociated phases were monitored under continuous flow of 30 μl/min, using antibody concentrations ranging from 0.1 to 100 nM for 5 min. Regeneration was performed by injection of regenerate buffer (0.2 M NaCl, 10 mM glycine, pH 2.7). To determine binding constants, the sensorgrams were fit globally to a sample 1:1 interaction model using BIAevaluation software (GE healthcare).
(§4) We analyzed the affinity of both human antibodies to VEGFR2 using a BIACORE T100™.

[4] = molecular target: T2, VEGFR2-Fc recombinant protein (R&D …); test: solid-phase competitive ELISA: antibody against 4 nM VEGF-A on immobilized VEGFR2
[5] = molecular target: T2, VEGFR2-Fc recombinant protein (R&D …); test: surface plasmon resonance, BIACORE T100, VEGFR2-Fc coupled to a CM5 chip, purified IgG as analyte
Experimental: as §3, §4

T2 sequence (P35968 20-764 limits assumed): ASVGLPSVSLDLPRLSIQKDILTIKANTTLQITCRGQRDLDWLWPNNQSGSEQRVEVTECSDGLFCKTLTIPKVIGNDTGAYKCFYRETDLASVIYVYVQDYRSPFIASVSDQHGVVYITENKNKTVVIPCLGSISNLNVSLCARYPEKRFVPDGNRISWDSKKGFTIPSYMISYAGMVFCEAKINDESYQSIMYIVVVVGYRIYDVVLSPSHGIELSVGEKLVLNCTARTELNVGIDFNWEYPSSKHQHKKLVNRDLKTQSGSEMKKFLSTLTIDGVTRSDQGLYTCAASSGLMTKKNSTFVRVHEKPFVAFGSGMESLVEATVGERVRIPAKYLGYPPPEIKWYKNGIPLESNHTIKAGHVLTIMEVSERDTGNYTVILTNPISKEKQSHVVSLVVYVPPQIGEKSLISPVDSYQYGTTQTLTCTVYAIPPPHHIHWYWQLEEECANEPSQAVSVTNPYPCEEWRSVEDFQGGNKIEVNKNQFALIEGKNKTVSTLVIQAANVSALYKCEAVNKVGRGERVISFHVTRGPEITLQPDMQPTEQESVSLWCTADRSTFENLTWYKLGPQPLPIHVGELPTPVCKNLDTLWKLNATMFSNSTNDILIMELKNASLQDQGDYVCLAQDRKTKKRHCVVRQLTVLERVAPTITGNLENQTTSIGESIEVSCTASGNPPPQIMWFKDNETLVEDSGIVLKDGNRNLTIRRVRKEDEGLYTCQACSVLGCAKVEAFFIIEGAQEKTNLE
T3 sequence (P35968 20-1356 limits assumed): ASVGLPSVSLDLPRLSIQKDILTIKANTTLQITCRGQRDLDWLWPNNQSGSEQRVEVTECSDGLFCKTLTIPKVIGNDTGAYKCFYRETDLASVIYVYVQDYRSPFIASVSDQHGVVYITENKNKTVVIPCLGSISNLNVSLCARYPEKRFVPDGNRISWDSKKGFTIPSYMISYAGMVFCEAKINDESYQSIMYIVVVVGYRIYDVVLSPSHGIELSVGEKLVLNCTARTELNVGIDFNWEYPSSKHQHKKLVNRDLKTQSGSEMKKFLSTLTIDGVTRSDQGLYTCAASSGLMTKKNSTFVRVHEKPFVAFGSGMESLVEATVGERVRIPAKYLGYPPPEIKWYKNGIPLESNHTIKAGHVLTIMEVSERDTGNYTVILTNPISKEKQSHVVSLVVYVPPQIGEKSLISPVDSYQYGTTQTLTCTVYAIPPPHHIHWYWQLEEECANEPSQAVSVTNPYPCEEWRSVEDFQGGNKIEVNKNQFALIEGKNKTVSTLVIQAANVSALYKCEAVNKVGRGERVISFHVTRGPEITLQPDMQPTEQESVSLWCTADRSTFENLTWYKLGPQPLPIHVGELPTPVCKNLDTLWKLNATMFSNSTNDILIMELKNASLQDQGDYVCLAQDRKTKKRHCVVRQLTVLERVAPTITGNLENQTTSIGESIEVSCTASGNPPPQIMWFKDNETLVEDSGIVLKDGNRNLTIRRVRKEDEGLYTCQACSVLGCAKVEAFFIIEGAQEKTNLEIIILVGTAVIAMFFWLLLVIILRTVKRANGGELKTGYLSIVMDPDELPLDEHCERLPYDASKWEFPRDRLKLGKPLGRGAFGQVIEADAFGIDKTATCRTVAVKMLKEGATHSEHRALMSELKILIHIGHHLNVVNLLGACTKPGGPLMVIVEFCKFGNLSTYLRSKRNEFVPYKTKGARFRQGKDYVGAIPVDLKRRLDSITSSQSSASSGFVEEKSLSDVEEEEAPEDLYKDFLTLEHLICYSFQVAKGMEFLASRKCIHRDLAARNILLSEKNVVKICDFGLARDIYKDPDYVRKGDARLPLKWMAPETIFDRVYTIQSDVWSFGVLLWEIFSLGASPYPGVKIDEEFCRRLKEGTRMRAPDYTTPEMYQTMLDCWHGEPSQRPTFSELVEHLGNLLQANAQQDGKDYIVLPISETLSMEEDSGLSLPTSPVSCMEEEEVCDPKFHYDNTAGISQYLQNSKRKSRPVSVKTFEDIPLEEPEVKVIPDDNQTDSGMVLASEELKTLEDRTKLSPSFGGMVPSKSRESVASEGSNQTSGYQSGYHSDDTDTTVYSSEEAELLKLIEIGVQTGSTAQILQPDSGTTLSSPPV
T1 sequence (P08581 25-932 limits assumed): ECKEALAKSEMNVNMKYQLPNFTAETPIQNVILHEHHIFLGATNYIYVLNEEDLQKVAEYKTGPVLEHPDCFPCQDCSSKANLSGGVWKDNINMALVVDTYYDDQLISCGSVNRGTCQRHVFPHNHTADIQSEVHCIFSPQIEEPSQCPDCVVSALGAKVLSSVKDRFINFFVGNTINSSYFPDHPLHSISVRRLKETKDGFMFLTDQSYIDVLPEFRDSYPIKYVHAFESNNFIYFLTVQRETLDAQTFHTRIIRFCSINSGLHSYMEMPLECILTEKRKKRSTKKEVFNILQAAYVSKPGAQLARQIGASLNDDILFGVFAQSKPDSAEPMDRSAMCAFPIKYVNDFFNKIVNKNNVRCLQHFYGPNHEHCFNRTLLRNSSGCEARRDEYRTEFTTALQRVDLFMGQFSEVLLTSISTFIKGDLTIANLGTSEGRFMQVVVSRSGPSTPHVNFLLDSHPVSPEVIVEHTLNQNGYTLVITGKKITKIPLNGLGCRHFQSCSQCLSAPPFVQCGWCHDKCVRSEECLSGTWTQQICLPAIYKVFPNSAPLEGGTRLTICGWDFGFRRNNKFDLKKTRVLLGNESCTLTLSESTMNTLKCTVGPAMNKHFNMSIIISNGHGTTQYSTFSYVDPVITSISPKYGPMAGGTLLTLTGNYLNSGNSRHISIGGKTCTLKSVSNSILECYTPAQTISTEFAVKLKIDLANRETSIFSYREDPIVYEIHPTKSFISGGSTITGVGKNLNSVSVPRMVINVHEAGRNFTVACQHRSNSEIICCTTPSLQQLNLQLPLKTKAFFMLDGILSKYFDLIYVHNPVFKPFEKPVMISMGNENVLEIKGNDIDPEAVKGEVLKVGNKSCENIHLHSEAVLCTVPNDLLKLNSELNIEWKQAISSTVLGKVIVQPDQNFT

B1: R2PC45 (scFv, V domains shown)
VH: QVNLRESGGGVVQPGRSLRLSCAASGFTFSSYAMHWVRQAPGKGLEWVAVISYDGSNKYYADSVKGRFTISRDNSKNTLYLQMNSLRAEDTAVYYCAREQDYGSSSGDAFDIWGQGTMVTVSS
VL: DIQMTQSPSSLSASVGDRVTITCRASQRISSYLNWYQQKPGKAPKLLIYDASNLQSGVPSRFSGSGSGTDFTLTINGLQPDDFAIYFCHQSYSAPPTFGQGTKVEIK
notes: also called anti-VEGFR2 scFv phage clone 45
B1: no binding (tested: 1x10^9 cfu) (c-Met-Fc control protein); binds [1]; binds [2].

B2: anti-VEGFR2-AF fully human antibody (hAb) (antibody, human IgG1)
heavy: not shown
light: DIQMTQSPSSLSASVGDRVTITCKASDDIINYLNWYQQKPGEAPKLLIYDASILETGVPSRFSGSGSGTDFTFTISSLQPEDIATYYCQQLDDIPITFGGGTKLEIK
notes: also called anti-VEGFR2-AF hAb; R2S12-AF in human IgG1 backbone; not shown: kappa constant region of vector p-Kappa-HuGs
With B2 the Kd [3] was 0.264 nM, the IC50 [4] was 0.88 nM and the koff [5] was 0.000442 s⁻¹. It also gave a kon [5] of 1.67e+06 M⁻¹ s⁻¹.

B3: anti-VEGFR2 fully human antibody (hAb) (antibody)
heavy: not shown
light: B2 light with L91Y, D93I, I94L, I96L
notes: also called anti-VEGFR2 hAb; R2S12 in human IgG1 backbone; not shown: kappa constant region of vector p-Kappa-HuGs
Work on B3 yielded a Kd [3] of 2.1 nM, an IC50 [4] of 1.87 nM and a koff [5] of 0.000472 s⁻¹. The kon [5] was 225000 M⁻¹ s⁻¹.
